The supplement of paper PMC10567573

B1: DVL3 (parent)
chain: YNPHPGFPELGYSYGGGSASSQHS
B2: POMT2 (parent)
chain: YHEAPMTRKHYQVTGYGINGTGDS

Variants of: B1
Test: protein stability index of a GFP-peptide fusion (GPS, HEK-293T) (PSI 1-6); higher = more stable
Conditions: c terminus: a fixed tail appended
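Note: lentivirally expressed fusions sorted by FACS into six bins by GFP to DsRed ratio, PSI derived from sequencing read proportions per bin multiplied by bin number.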

Protein stability index, by site and new letter:
P3: A 3.07
N2: Q 2.33 | L 2.16 | T 2.23 | R 3.09 | W 2.48 | G 3.06 | D 3.64 | K 3.28 | H 3.33 | V 1.82 | A 1.96 | S 2.72 | Y 2.87 | M 2.55 | P 1.97 | C 2.12 | E 3.75 | F 2.32 | I 2.37
Y1: L 3.88 | I 3 | P 4.24 | C 2.33 | K 3.94 | R 3.52 | Q 4.53 | F 2.16 | H 3.39 | A 4.36 | E 4.73 | S 3.75 | T 4.25 | M 3.37 | V 3.12 | G 4.47 | N 4.11 | D 4.18 | W 3.49

Variants of: B2
Test: as above
Conditions: c terminus: a fixed tail appended

Protein stability index of substitutions, site by site:
V13: S 3.32 | Y 2.97 | I 2.21 | K 2.68 | W 2.23 | G 2.52 | C 2.14 | T 2.6 | R 3.24 | N 2.65 | F 2.08 | M 2.59 | A 2.76 | L 2.69 | Q 3.11 | D 3.46 | P 2.34 | H 2.84 | E 3.61
N19: Y 2.57 | M 2.62 | G 2.4 | K 2.44 | V 2.03 | D 1.88 | E 1.9 | T 2.21 | F 2.3 | C 2.02 | H 2.25 | S 2.3 | I 1.9 | A 1.8 | L 2.06 | P 2.4 | R 1.73 | Q 1.84 | W 2.24
D23: S 2.14 | W 1.24 | M 1.66 | P 2.02 | E 2.11 | R 1.25 | F 1.63 | C 2.22 | G 2.88 | A 2.02 | K 1.99 | T 1.85 | Y 1.67 | V 2.42 | I 2.18 | N 2.17 | L 1.95 | H 2.03 | Q 2.44
Q12: G 2.08 | Y 2.46 | I 1.97 | E 2.41 | D 3.05 | K 2.24 | V 2.36 | M 2.34 | S 2.22 | C 2.08 | F 2.28 | R 1.88 | A 1.96 | T 2.16 | N 2.85 | H 2.07 | L 2.29 | P 2.37 | W 1.91
G22: W 1.7 | L 2.28 | P 3.15 | N 2.18 | Q 2.28 | A 2.26 | D 2.17 | M 2.04 | T 1.95 | E 2.35 | K 2.29 | H 2.44 | I 1.68 | C 1.91 | S 2.36 | Y 2.15 | V 2.25 | F 2.3 | R 1.92
S24: A 2.15 | G 2.57 | N 2.11 | D 2.41 | L 1.64 | I 2.16 | C 1.81 | K 2.57 | F 1.76 | T 1.98 | P 2.23 | Q 1.68 | V 2.44 | W 1.49 | M 1.79 | R 2.17 | E 2.29 | H 1.99 | Y 2.1
G17: F 1.79 | N 2.03 | C 2.41 | T 2.24 | R 2.37 | Q 1.75 | S 1.62 | L 2.5 | D 2.51 | K 2.13 | P 2.87 | I 1.84 | E 2.73 | V 2.08 | M 1.84 | Y 2.26 | A 1.9 | H 2.06 | W 2.6
G20: I 2.03 | E 2.4 | N 2.47 | F 2.35 | D 2.18 | Q 2.43 | S 2.36 | Y 2.39 | T 2.43 | W 2.12 | A 2.45 | K 2.08 | C 1.86 | L 2.21 | V 1.98 | M 1.98 | R 2.16 | H 2.26 | P 2.24
H10: E 3.02 | F 2.5 | P 2.37 | V 1.91 | G 3.05 | D 3.54 | R 1.94 | T 2.08 | N 2.92 | Q 2.87 | K 2.58 | L 1.51 | W 2.49 | I 2.79 | A 1.86 | Y 1.33 | S 2.36 | M 1.94 | C 2.66
K9: P 2.76 | T 2.7 | N 2.47 | Y 1.76 | M 2.3 | R 1.87 | V 2.35 | S 2.29 | Q 2.9 | W 2.07
T21: C 2.4 | M 2.01 | V 1.37 | E 2.04 | H 2.23 | Q 2.12 | Y 1.76 | I 1.37 | G 1.83 | F 2.11 | L 2.1 | S 2.19 | A 2.56 | W 2.15 | N 2.58 | D 2.46 | R 2.6 | P 2.25 | K 2.3
I18: E 2.95 | T 2.42 | N 2.42 | M 2.3 | R 2.55 | K 2.78 | Y 2.07 | G 2.2 | C 2.37 | P 2.36 | V 2.21 | H 2.47 | A 2.73 | F 2.47 | W 1.67 | Q 2.9 | D 2.9 | L 2.64 | S 2.22
T14: V 1.84 | E 2.96 | M 2.05 | I 2.12 | G 3.05 | L 1.99 | N 2.39 | S 2.03 | D 3.36 | Q 2.87 | Y 1.54 | W 1.41 | P 2.54 | A 1.85 | H 2.53 | F 2.57 | C 3.13 | R 2.13 | K 1.97
G15: E 3.36 | Y 2.44 | H 2.63 | L 1.51 | M 2.03 | T 2.78 | N 2.04 | Q 1.88 | F 1.19 | D 2.31 | K 2.71 | V 1.44 | W 2.28 | I 1.59 | P 2.86 | A 2.25 | R 2.02 | S 2.14 | C 2.01
Y16: A 2.48 | G 2.9 | V 2.47 | N 2.43 | F 1.75 | W 1.75 | D 3.66 | R 3.36 | L 1.97 | P 2.92 | M 2.3 | C 2.51 | T 2.53 | I 2.47 | Q 2.26 | E 3.3 | H 2.79 | K 3.2 | S 2.67
Y11: E 3.98 | C 3.06 | T 3.17 | M 2.98 | D 3.77 | I 2.77 | P 3.14 | L 2.75 | G 3.23 | N 3.15 | S 3.03 | A 3.38 | V 3.22 | K 3.14 | Q 3.57 | F 2.01 | W 1.7 | H 2.93 | R 2.56
